Measurements: patent US9068161B2, “Laccases and uses thereof” (DEINOVE, priority 2010, dated 2015)

B1: Laccase 1: enzyme having laccase activity from Deinococcus cellulolysiticus DRH46, amino acid sequence SEQ ID NO: 2, recombinant with 6(His) tag (protein)
chain: MKQRLTAAALLTALLSSCAMKNPDVISYQDPEPLAGQRSGKAAEFTLTAQKSRLDLAGQSVEALTYNGTFPGPLLTLKAGEDVRITLKNNLSEPTNLHLHGLPLSPEVDDPFVVVPPGGSHTYAFQVPEEVHGTFWYHTHTHGASAAQLFSGLAGPLLVEAAKPNNPIEHMETHTVVFKDLPGAQHADDGVLMNGRENTLLVNGLVSPTLKTENSWVQLRLINASNARYLRLKLDDGLLQVVARDGIDLPGMERAQELLLTPGERADVLVSLQDHQNLKLQNLPYDRGVHSMGSHSGHTESKTAVVLTLQGPQKPGASVPRVETAPPPFLQLQGNEKVRKVILQETMQPVKFFINGRSFDMNRVDFHVSEGSTEIWELQNTTEMDHPFHLHTFPMQLIRIGGKEVPPVWKDTVNIPKNSTVTVAVHFKGFTGKTVFHCHIAEHEEAGMMGLLQVHPSGTALPASLEPIEPTVGPGEDAQHGH
modifications: 6xHis tag; Laccase 1 derived from Deinococcus cellulolyticus DRH46
B2: Deinococcus cellulolysiticus DRH46 laccase 1, recombinant, SEQ ID NO: 2 (Deinococcus cellulosilyticus NBRC 106333 = KACC 11606) (protein)
chain: NPDVISYQDPEPLAGQRSGKAAEFTLTAQKSRLDLAGQSVEALTYNGTFPGPLLTLKAGEDVRITLKNNLSEPTNLHLHGLPLSPEVDDPFVVVPPGGSHTYAFQVPEEVHGTFWYHTHTHGASAAQLFSGLAGPLLVEAAKPNNPIEHMETHTVVFKDLPGAQHADDGVLMNGRENTLLVNGLVSPTLKTENSWVQLRLINASNARYLRLKLDDGLLQVVARDGIDLPGMERAQELLLTPGERADVLVSLQDHQNLKLQNLPYDRGVHSMGSHSGHTESKTAVVLTLQGPQKPGASVPRVETAPPPFLQLQGNEKVRKVILQETMQPVKFFINGRSFDMNRVDFHVSEGSTEIWELQNTTEMDHPFHLHTFPMQLIRIGGKEVPPVWKDTVNIPKNSTVTVAVHFKGFTGKTVFHCHIAEHEEAGMMGLLQVHPSGTALPASLEPIEPTVGPGEDAQHGH
B3: Deinococcus cellulolysiticus DRH46 laccase 2, recombinant, SEQ ID NO: 4 (Deinococcus cellulosilyticus NBRC 106333 = KACC 11606) (protein)
chain: PKGSPMTEYHNPAEVQASRTEKGSTFTLTAAETSITLDGKEVKAQLFNQSFPGPQLTLQAGEQVNLTLKNDLREPTNLHLHGLTLPAGVDDPFLQVQPGESHTYSFTVPQGLHGTFWYHTHTHGHLGTQLFQGLAGPLIVEDPTFDSHIQGMETHTVVLKDLPVEVQDSDGTRMNGREGKLLVNGLSSPTLKTESSWVRLRLINASNARYDLLKLSGSAFLHVIAKDGIDLPKTEQVKELLLTPGERADVLISVQDQQDLRLENHPYDRGVHEMDGGHQGHTPSTPEVLLTLQGKKGSVSASVPQPALQPRPFLKVTGNEAIRKVVLQETMQPVKFFINGRTFDMNRVDFHVSEGTTEIWEVENQTEMDHPFHLHTFPVQVLSVNGQEVPPVWKDTVNVPAKAKVQVAVKFEGFTGKTVFHCHIAEHEEEGMMGVLQVHPAGEALPASLTPTLPPAAASEDMPDMPGMDHSGH
B4: Laccase 2: enzyme having laccase activity from Deinococcus cellulolysiticus DRH46, amino acid sequence SEQ ID NO: 4, recombinant with 6(His) tag (protein)
chain: MIRTLTSLTLLTVALTACAPKGSPMTEYHNPAEVQASRTEKGSTFTLTAAETSITLDGKEVKAQLFNQSFPGPQLTLQAGEQVNLTLKNDLREPTNLHLHGLTLPAGVDDPFLQVQPGESHTYSFTVPQGLHGTFWYHTHTHGHLGTQLFQGLAGPLIVEDPTFDSHIQGMETHTVVLKDLPVEVQDSDGTRMNGREGKLLVNGLSSPTLKTESSWVRLRLINASNARYDLLKLSGSAFLHVIAKDGIDLPKTEQVKELLLTPGERADVLISVQDQQDLRLENHPYDRGVHEMDGGHQGHTPSTPEVLLTLQGKKGSVSASVPQPALQPRPFLKVTGNEAIRKVVLQETMQPVKFFINGRTFDMNRVDFHVSEGTTEIWEVENQTEMDHPFHLHTFPVQVLSVNGQEVPPVWKDTVNVPAKAKVQVAVKFEGFTGKTVFHCHIAEHEEEGMMGVLQVHPAGEALPASLTPTLPPAAASEDMPDMPGMDHSGH
modifications: 6xHis tag; Laccase 2 derived from Deinococcus cellulolyticus DRH46

How the values were obtained:
[1] = Laccase assay, overall conclusion on recombinant enzyme; type: biochemical; details: in the tested conditions
Protocol: (§1) Standard assays for laccase activity were performed at the temperature range from 30° C. to 90° C. by measurement of enzymatic oxidation of substrates at appropriate wavelength. The reaction was performed in presence of a substrate concentration range, 0.05 mg/mL of purified enzyme and 1 mM prepared in 0.1M citrate-phosphate buffer pH8.
Standard assays were performed using the following substrates: 2,6 DMP, 4-methyl DMP, synapic acid, syringic acid, guaiacol, ABTS, paraphenylenediamine and ferulic acid.
Reagent A (185 μl) was mixed with Reagent B (10 μl). The mixture was equilibrated to 45° C. or 60° C. The absorbance at 470 nm was monitored until constant, using a suitably thermoregulated spectrophotometer. Then Reagent C (5 μl) was added and the increase in A470 nm was recorded for 30 minutes. The ΔA470 nm/minute was obtained using the maximum linear rate for the Test, Control and Blank, Blank being mixture without enzyme and Control being mixture with laccase from Trametes versicolor (T. versicolor, commercial enzyme) replacing Laccase enzyme solution (Reagent C).
Other substrates, different from 2,6 DMP such as 4-methyl DMP, synapic acid, syringic acid, guaiacol, ABTS, paraphenylenediamine and ferulic acid have also been tested at optimal concentration for each substrate (as shown in Tables 1A and 1B).

[2] = Temperature and pH optimum of laccase activity; type: biochemical; details: 2,6 DMP as substrate
Protocol: as §1
In another series of experiments, the laccase activity according to the invention, was also tested in different conditions of temperature and pH using various substrates.

[3] = substrate: COc1ccccc1O; assay: Laccase assay, Laccase 1 activity (oxidation of substrates, spectrophotometric); type: biochemical, Deinococcus cellulolysiticus DRH46; details: other: 60° C., pH 8, 0.1M citrate-phosphate buffer, 0.05 mg/mL purified enzyme
From the text: (§2) Two enzymes having laccase activity have been characterized from Deinococcus cellulolysiticus DRH46 (namely laccase 1, laccase 2), and one enzyme having laccase activity has been characterized from Deinococcus maricopensis DSM 21211 (i.e., laccase 3). The amino acid sequences of laccase 1, laccase 2 and laccase 3 are represented in SEQ ID NO: 2, 4 and 6, respectively.
(§3) As mentioned in Example 1, nucleic acids encoding the laccase 1, 2 and 3 enzymes comprising the amino acid sequence of SEQ ID NO: 2, 4 or 6 respectively, were cloned into the pETDEST42 vector according to conventional recombinant techniques. In each vector, the cloned nucleic acid was cloned in frame with a 6(His) tag (SEQ ID NO: 7), to facilitate purification of the recombinant protein.
(§4) E. coli cells harboring the recombinant nucleic acid are prepared and grown in 4 liters of LB medium. Induction of the enzyme production is performed overnight in the presence of 1 mM IPTG and 2 mM of […]. […]
(§5) The assay is performed at T=45° C. and 60° C., pH=8. The absorbance was measured at A470 nm and the measure was carried out using Continuous Spectrophotometric Rate Determination. […]
(§6) Reagent A (185 μl) was mixed with Reagent B (10 μl). […] The absorbance at 470 nm was monitored until constant, using a suitably thermoregulated spectrophotometer. Then Reagent C (5 μl) was added and the increase in A470 nm was recorded for 30 minutes. […]

[4] = substrate: COc1cccc(OC)c1O; assay: as above; type: biochemical, Deinococcus cellulolysiticus DRH46; details: other: 60° C., pH 8, 0.1M citrate-phosphate buffer, 0.05 mg/mL purified enzyme
From the text: as §2, §3, §4, §5, §6

[5] = substrate: COc1ccccc1O; assay: Laccase assay, Laccase 2 activity (oxidation of substrates, spectrophotometric); type: biochemical, Deinococcus cellulolysiticus DRH46; details: other: 60° C., pH 8, 0.1M citrate-phosphate buffer, 0.05 mg/mL purified enzyme
From the text: as §2, §3, §4, §5, §6

[6] = substrate: COc1cccc(OC)c1O; assay: as above; type: biochemical, Deinococcus cellulolysiticus DRH46; details: other: 60° C., pH 8, 0.1M citrate-phosphate buffer, 0.05 mg/mL purified enzyme
From the text: as §2, §3, §4, §5, §6

| Molecule | Laccase activity of the recombinant enzyme [1] | Optimal pH [2] | Optimal temperature [2] [°C] | Km [3] [µM] | Km [4] [µM] | Km [5] [µM] | Km [6] [µM] |
| --- | --- | --- | --- | --- | --- | --- | --- |
| B1 | fully active | 8 | 90 | – | – | – | – |
| B2 | – | – | – | 3046 ± 183 | 798 ± 35 | – | – |
| B3 | – | – | – | – | – | 5074 ± 343 | 992 ± 141 |
| B4 | fully active | 8 | 70 | – | – | – | – |
